From US20210220451A1
Where two headings read alike, the source gives them in different places.

T1: 33-mer toxic gluten peptide from alpha-gliadin
T1 sequence: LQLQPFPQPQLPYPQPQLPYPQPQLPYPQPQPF

T2: 33-mer toxic gluten peptide from alpha-gliadin
T2 chain: T1 sequence

B1: recombinant nepenthesin I (from N. gracilis, acid-activated) (protein)
chain: APTHSTSRTALNHRHEAKVTGFQIMLEHVDSGKNLTKFQLLERAIERGSRRLQRLEAMLNGPSGVETSVYAGDGEYLMNLSIGTPAQPFSAIMDTGSDLIWTQCQPCTQCFNQSTPIFNPQGSSSFSTLPCSSQLCQALSSPTCSNNFCQYTYGYGDGSETQGSMGTETLTFGSVSIPNITFGCGENNQGFGQGNGAGLVGMGRGPLSLPSQLDVTKFSYCMTPIGSSTPSNLLLGSLANSVTAGSPNTTLIQSSQIPTFYYITLNGLSVGSTRLPIDPSAFALNSNNGTGGIIIDSGTTLTYFVNNAYQSVRQEFISQINLPVVNGSSSGFDLCFQTPSDPSNLQIPTFVMHFDGGDLELPSENYFISPSNGLICLAMGSSSQGMSIFGNIQQ
B2: recombinant nepenthesin II (from N. gracilis, acid-activated) (protein)
chain: QSSSGIETPVYAGDGEYLMNVAIGTPDSSFSAIMDTGSDLIWTQCEPCTQCFSQPTPIFNPQDSSSFSTLPCESQYCQDLPSETCNNNECQYTYGYGDGSTTQGYMATETFTFETSSVPNIAFGCGEDNQGFGQGNGAGLIGMGWGPLSLPSQLGVGQFSYCMTSYGSSSPSTLALGSAASGVPEGSPSTTLIHSSLNPTYYYITLQGITVGGDNLGIPSSTFQLQDDGTGGMIIDSGTTLTYLPQDAYNAVAQAFTDQINLPTVDESSSGLSTCFQQPSDGSTVQVPEISMQFDGGVLNLGEQNILISPAEGVICLAMGSSSQLGISIFGNIQQQETQVLYDLQNLAVSFVPTQCGAS

Experiments:
[1] = molecular target: 33-mer toxic gluten peptide from alpha-gliadin; assay: cell-based or functional assay
[2] = tested on: T1, 33-mer toxic gluten peptide from alpha-gliadin
[3] = molecular target: T2, 33-mer toxic gluten peptide from …

| Molecule | Relative Peak Area (%) of undigested 33-mer by LC-MS after 0.5 h at 100:1 substrate:enzyme, percent of the control without enzyme [3] [%] | also measured |
| --- | --- | --- |
| high molecular weight fraction (>approx. 10 kDa) of Nepenthes extract (fluid) |  | Relative Peak Area (%) of undigested 33-mer by LC-MS after 0.5 h at 100:1 substrate:enzyme, percent of the control without enzyme [1]: 0% |
| pepsin |  | Relative Peak Area (%) of undigested 33-mer by LC-MS after 0.5 h at 100:1 substrate:enzyme, percent of the control without enzyme [2]: 93.2% |
| B1 | 78.7 |  |
| B2 | 34 |  |
